This note sets out measurements from the DeepSol protein solubility set.

The nature of this data set: soluble on expression in E. coli; label from the status in PepcDB or PDB records.
For the sequence “GPGSTGRSQATRTQERQEGRKKDMESKGTPTTRHPHVLTTARRKKETLWHGTPKRQTNPTTAVASKSEVVATSPHDGGSGRLPEDSQEATDEVVTLSSASSPLSRTLDGSCMPFAPPLGSDMAVTVACGPVNRTSLLSTEEKTAHAILGQADAMTDRRRSEEMLYYLEAARALREVTSGVEAREQCLRDEIERQSTLYSAKKLDLAEKQKVYERLHESTLRLTRNVRRIDSENDRIRDRLTKLQMTIEKMESRKLPRHIQQDVDRVVRCESVPSWQGANQRVGGCEAIVPMRSVGSVAKNTLMTELEMYTRKLRSAEVRHDKLIKELQLAVARRKGRAAAYNSFGASLSFSGYSGMGNRDGSFLTDSVGESIAIQQLERMIDDSLIRCK”, the “soluble on expression in E. coli” value is given as “not soluble”. Turning to “MDSRPGLRTTSPSSGTRTGRSNTRTLPPDPLLECAGRTRWPFGIREPDEDYPVTIIETEGFLNLVSVSAVALNQPFSLFFGAGVVLIPVRFECMRTPPVPAGRGGRVIRIVKFGIVRHLFSLLAQQVPVVQADGWIVNQNDQKKQNPPKRVKCGCVEDA”, the “soluble on expression in E. coli” value was “not soluble”. “MSSTPSLSHSPAELYRAWQDLRAERPQLRARDAAALLQVSEGELVASRVGIDAVRLRPDWAALLPALGELGPIMALTRNEHCVHERKGPYREVTVSANGQMGLVVSPDIDLRLFLGGWNAVFAIAEETARGTQRSIQVFDQQGVAVHKVFLAEASDVRAWEPLVERLRAAEQDAVLALHEPRAPAAALVDAQIDAAALREGWAALKDTHHFHALLKKHGAQRTQALRLAGGEWAERLDNGDLAKLFEAAAESGLPIMVFVGNAHCIQIHTGPVCNLKWLDDWFNVLDPEFNLHLKTTGIAELWRVRKPSTDGIVTSWEAFDADGELIVQLFGARKPGEPERDDWRELAESFKAL”: the “soluble on expression in E. coli” value was “not soluble”. Then “SNASVFDLFSIGIGPSSSHTVGPMLAANAFLQLLEQKNLFDKTQRVKVELYGSLALTGKGHGTDKAILNGLENKAPETVDPASMIPRMHEILDSNLLNLAGKKEIPFHEATDFLFLQKELLPKHSNGMRFSAFDGNANLLIEQVYYSIGGGFITTEEDFDK”, with “soluble”; and “MVKPDWWIREMARKGMIEPFEERLVREGVISYGLSSFGYDLRAAPEWKIFTNVFSSLVDPKNFDPKSFVEYEGEEVVIPPNSFALTRSLEYIRMPDNVIAIALGKSTYARCGIVVNVTPLEPGWEGHVTLEISNTTPLPAKVYAGEGIVQLLFLEGPRPEVTYRDRKGKYQGQKGITLPRV”, with “soluble”. Turning to “MAHHHHHHMLRVIVRRLAWRPAAIQHLPDLGSKDAPKKTEDTQRQYRPLSLRARQALAEKSDEVQYHVITQDWFGQRVDTFLTQHHPEWSYETMKTLVQQGHIYRYRKNGKKRFTRITDRLEFDELLVVPTPVFYERQLAPPTGVLQESKKPTHFKLSSQVREMAHNMVLFKNEHVIVINKPHGVPMMPTSDPQEMNIAAMLSAWKYTNSTKPIVCHNLDKETSGCVVLARSKNAHRMLARMFVKRVVPNSVYWGFCVGKPSVNFGRIRMHFEMTRGTKGDIIVARPSPTKTSKVGIAEFVVNASALEFGSFISFYPLTTRRHQERIMAAHALRSPLLGDAKYGGESAFPSSMSLFWDPEDKGLPLHLHHRKIQLPYKNSTGEFVCVTAPLPIHMEKTFKKLGWPCDVDDPLIPG”, the “soluble on expression in E. coli” value is “not soluble”. Then “MTSITPVTLANCEDEPIHVPGAIQPHGALVTLRADGMVLAASENIQALLGFVASPGSYLTQEQVGPEVLRMLEEGLTGNGPWSNSVETRIGEHLFDVIGHSYKEVFYLEFEIRTADTLSITSFTLNAQRIIAQVQLHNDTASLLSNVTDELRRMTGYDRVMAYRFRHDDSGEVVAESRREDLESYLGQRYPASDIPAQARRLYIQNPIRLIADVAYTPMRVFPALNPETNESFDLSYSVLRSVSPIHCEYLTNMGVRASMSISIVVGGKLWGLFSCHHMSPKLIPYPVRMSFQIFSQVCSAIVERLEQGRIAELLRVSTERRLALARRARDADDLFGALAHPDDGIAALIPCDGALVMLGGRTLSIRGDFERQAGNVLQRLQRDPERDIYHTDNWPQPSEDSPDGGDCCGVLAIRFHRQESGWIFWFRHEEVHRIRWGGKPEKLLTIGPSGPRLTPRGSFEAWEEVVRGHSTPWSETDLAIAEKLRLDLMELCLNHALEHHHHHH”, with “soluble”; and “GSHMSAGIGESRTELLTWLNGLLNLNYKKIEECGTGAAYCQIMDSIYGDLPMNRVKFNATAEYEFQTNYKILQSCFSRHGIEKTVYVDKLIRCKFQDNLEFLQWLKKHWIRHKDESVYDPDARRKYR”, with “soluble”. The result for “MLMFTEKEFAAFEVAGLDERMAVIRAQIQPIFQELDTYFAEQLAPELGTELFVHIAQHRRRTVYPPENTWSALSPNKRGYKMQPHFQLGIWGDYVFMWLSFIDNPKNEKQIAQAFLENQQLFQALPEDTYVSLDHTVPQITPLPETDLEKALTRFRDVKKGEFEIGRIIPKDSDLWQNPEKARAYMLATYQQLLPLYQLAVAQ” reads “not soluble”; that for “MSNALRGGPDFLLSVDSPVNIPSAFWSTLSPMTPRPRLLLTAALLALVPAAQAADLRLYPTLGEVTSQPLKVEGGAVTVPFPKADWAWVVPGSVRLLGVPVTRTRVTPGVNVLRAHEGEAVRVLRGGLNLKGTLADAEALLVQLDSGEYLTVRPDELAFSTRPPSSRDVADVKVTFETGGAGSANLLYQTRALSWKPRYELDASGDAATLRALAEIRNAGDQSFSGSTDLYAGDVRLVPENVPMPTLRWWENSPRPPAARAMPLSPRTALSRLSARLEHHHHHH”, “not soluble”. For the sequence “MDSSFTPIEQMLKFRASRHEDFPYQEILLTRLCMHMQSKLLENRNKMLKAQGINETLFMALITLESQENHSIQPSELSCALGSSRTNATRIADELEKRGWIERRESDNDRRCLHLQLTEKGHEFLREVLPPQHNCLHQLWSALSTTEKDQLEQITRKLLSRLDQMEQDGVVLEAMS”, the “soluble on expression in E. coli” value was “not soluble”. Then “MTPDFQIVTQRLQLRLITADEAEELVQCIRQSQTLHQWVDWCHALFSQQEAEQFIQATRLNWVKAEAYGFGVFERQTQTLVGMVAINEFYHTFNMASLGYWIGDRYQRQGYGKEALTALILFCFERLELTRLEIVCDPENVPSQALALRCGANREQLAPNRFLYAGEPKAGIVFSLIP”, with “soluble”; and “MSLKITSISVQQKNKERYNIFIDEKYNFSVDEEVLARYQLMKGKTLTEADIEEIKQADMVRKGLNKAINFLSHRVRSEKEIRDYLRKQEMEPFAVDEILKKLADMDYINDVEFAELYTKTQIKTTLKGPRTIERELVEKGLTREIISQVMEEYASDIQLENATKQAMKIMKRNNKSAKKMLQQKIITDLIQKGYSSEVAKMAAIEATSELDVADEADILQKQVEKTIRKNKRYKPSIAKQKTITSLMQKGFSYDTIQSYLTENEISEGHHHHHH”, with “not soluble”. With “MTQEEMKHIDPSGNHTISHLCEAWKLSMRYQVKPSTFACYATIIQKHIRPSIGTVEMEEMNNEILSEFILDRQSRGLSANTMRLILFLLKSIIRAGERRGICPAEPLDFFLPKDRGYEMKLLSQDNRRKLLSWLAGCRTNFELGLLLSLSTGIRVGELCGMKWEDVDLEEGVLHIRRTVSRIRNTDQKNTAAKTVLYIGSPKTGTSQREIPLPDFMIPRLKEKKREAGCYLLTGRTGCMEPRGVQRRFKN”, the “soluble on expression in E. coli” value is recorded as “not soluble”. Then “MSKTLDGEPIECEIIDSLKLVNNTMDKIISRGYEKSAIYTPKAYGSVYRLSETNLLSKNEFKDNLLITFMAKKFKKLIRSEKPDLIIGTHPFPMIALSTLKKNFNLHNNESNAYTEHFYKHYTNTINVPPLISVLTDYTTHSTWIQNEIDYYIVGHEYVKELLVFDGVEPSKIRTFGIPLEHHHHHH”, with “not soluble”.

As to “MAYSNDEIVKGIDGIYSNENPNSNIKYVINESRFNASQLCKTKKGIKQMSDEWLLEDGGKRILEAVNGDRKLQKDIIRVLNKGQVEKVLSRVGKDGKVTTYRLNSNGEIIGFWP”, the “soluble on expression in E. coli” value is on record as “not soluble”. Then “SNAVRQVEEYIEANWMRPITIEKLTALTGISSRGIFKAFQRSRGYSPMAFAKRVRLQHAHNLLSDGATPTTVTAAALSCGFSNLGHFARDYRDMFGEKPSETLQRARP”, with “soluble”; and “MPESVAVTGGNGRIGKHVLDHLTTAGYRTVNLSRGKCDEAHSDAYIKTDLLDAGELYGALAKSDADTVVHLGMIPTPDQTPGYRTYESNVMSSYHVLEAAGELGIDTVALASSFSAIGGGFEPDLITVDYLPIDEDHRLTPSNPYAMGKQTLEIAADGFARRSTDAPETITSLRFPWVVDDDLAQETFVEADRTLAGLRNSDHFHTQRNTLCGYVHVTDAVALVEAAIEASFAGHERLWVSAPDTSAETPSAELAAELYSDADYRGQTGDDGSPYTALIDTTKAERLLGWEPTWNWRQLA”, with “not soluble”. The result for “MGSDKIHHHHHHMRLTCAIIDDEPLAVSLLESYVLKTPFLDLQGTYNSALDALSDLRDRPVDLLFLDIQMPELSGLEFSRILNADTRVIFTTAFDQYAVDSYRVNALDYLLKPISYPDFLASANKALRWYELLRKPVSSEEKEGSAPIAEKGGMESIFVKSEYKLLQIELRKILYIEGLKDYVKIFVEDEPRPVLSLMSMKSLEDMLPSDRFVRVHRSFIVQPEKIKVIERNRIVFGKEYIPISDNYKQHFLEMIERRSILPK” reads “not soluble”.

For the sequence “MSSVYTMKRIWLQKDKKAYQAWRELMEKAELQTTEALDYTVGIYDDTALIASGSLSGKTIKCVAVCKKYQSENLLTQLVVHLLEKLREENQLHSFLYTKPKNEQIFQSLGFQKVVANQEVLFMEQGKPDFADYLGYLTQHKKAGPASSIVMNANPFTKGHQYLVEKAAQESPHVYVFVLSEDKSLFSKEARFAMVQKGVAHLPNVTVLSTEDYLVSSATFPTYFLKEKAPLEVAAIQATLDATLFKERIAPILEIQQRYVGEEPYSEVTAVYNQAMQQVFGQTITLTIVPRLASDGELISATKVRKAMAEGDKETLKKFLPATSYQYLVEHKKLMR”, the “soluble on expression in E. coli” value is “not soluble”. Then “MGSDKIHHHHHHMSLLTVKDLGQSFIDKTLYEDANFVLNKEDHMGVTGQNGVGKSTLIKILTGEILPDNGQVKWQNKIDVGYLDQYAKLAPGVTIRGFLRTAFDDLFQKEKELNELYTKYAETSDEDLLEKAGKVQTYLEENNFYDIDTEIEQVASGLGLADLGYDHDVSKLSGGQRSKIILGKLLLQNPDVLVLDEPTNYLDVSHIDWLVDYLNNFEGAFIVVSHDYDFLGRITNCIIDIDFGTITRYTGTLKQAMRQKAANRETYLKAYANQQRKIAKTEAYIRKNKAGTRAKSAKSREKQLARMDVLTPPKNNRRAKFEFPYVATASNLLLQTQDLVIGYDQALVKSAFNFSVGGDEKVAITGFNGIGKTTLLKTLLGQLKPIYGSYDLSVTAKLAYFKQDLTWPNNNMTPLQYLQEEFERKKPKELRQALARMGLTAQQAMSPLKELSGGEQEKVKLAKMQFEPANLLFLDEPTNHLDNDTKDALRKAIINFSGGVIIVSHERDFFRGDWIDKTIDIETMN”, with “not soluble”; and “MARKRRAARVKDKWTLKKWFTLIAPEYFGMAELGETPADDASKVVGRTVETTLAELTNDYSNQNTYKKLIFKVYRVAGDNAYTKFWRFELTREYLNSLTRRRTSKIEDIVDVTTADGYKLRVKSVVFTVRRCKTSQKRAIRAIMRQIVVEKASSLNFVQFLQECVLGKVPAEIYKNAKKIYPIRRVEIRKIELLAEPAEAETQPAVAEAVALEHHHHHH”, with “soluble”.
